In PMC10047360:

Assay: Western blot, mature upper band, B3GnT2-/- HEK293T
Conditions: glycan lost; control: wild-type LRP6

Protein | localisation_or_trafficking
LRP6: N1039Q (protein) parent chain: MGAVLRSLLACSFCVLLRAAPLLLYANRRDLRLVDATNGKENATIVVGGLEDAAAVDFVFSHGLIYWSDVSEEAIKRTEFNKTESVQNVVVSGLLSPDGLACDWLGEKLYWTDSETNRIEVSNLDGSLRKVLFWQELDQPRAIALDPSSGFMYWTDWGEVPKIERAGMDGSSRFIIINSEIYWPNGLTLDYEEQKLYWADAKLNFIHKSNLDGTNRQAVVKGSLPHPFALTLFEDILYWTDWSTHSILACNKYTGEGLREIHSDIFSPMDIHAFSQQRQPNATNPCGIDNGGCSHLCLMSPVKPFYQCACPTGVKLLENGKTCKDGATELLLLARRTDLRRISLDTPDFTDIVLQLEDIRHAIAIDYDPVEGYIYWTDDEVRAIRRSFIDGSGSQFVVTAQIAHPDGIAVDWVARNLYWTDTGTDRIEVTRLNGTMRKILISEDLEEPRAIVLDPMVGYMYWTDWGEIPKIERAALDGSDRVVLVNTSLGWPNGLALDYDEGKIYWGDAKTDKIEVMNTDGTGRRVLVEDKIPHIFGFTLLGDYVYWTDWQRRSIERVHKRSAEREVIIDQLPDLMGLKATNVHRVIGSNPCAEENGGCSHLCLYRPQGLRCACPIGFELISDMKTCIVPEAFLLFSRRADIRRISLETNNNNVAIPLTGVKEASALDFDVTDNRIYWTDISLKTISRAFMNGSALEHVVEFGLDYPEGMAVDWLGKNLYWADTGTNRIEVSKLDGQHRQVLVWKDLDSPRALALDPAEGFMYWTEWGGKPKIDRAAMDGSERTTLVPNVGRANGLTIDYAKRRLYWTDLDTNLIESSNMLGLNREVIADDLPHPFGLTQYQDYIYWTDWSRRSIERANKTSGQNRTIIQGHLDYVMDILVFHSSRQSGWNECASSNGHCSHLCLAVPVGGFVCGCPAHYSLNADNRTCSAPTTFLLFSQKSAINRMVIDEQQSPDIILPIHSLRNVRAIDYDPLDKQLYWIDSRQNMIRKAQEDGSQGFTVVVSSVPSQNLEIQPYDLSIDIYSRYIYWTCEATNVINVTRLDGRSVGVVLKGEQDRPRAVVVNPEKGYMYFTNLQERSPKIERAALDGTEREVLFFSGLSKPIALALDSRLGKLFWADSDLRRIESSDLSGANRIVLEDSNILQPVGLTVFENWLYWIDKQQQMIEKIDMTGREGRTKVQARIAQLSDIHAVKELNLQEYRQHPCAQDNGGCSHICLVKGDGTTRCSCPMHLVLLQDELSCGEPPTCSPQQFTCFTGEIDCIPVAWRCDGFTECEDHSDELNCPVCSESQFQCASGQCIDGALRCNGDANCQDKSDEKNCEVLCLIDQFRCANGQCIGKHKKCDHNVDCSDKSDELDCYPTEEPAPQATNTVGSVIGVIVTIFVSGTVYFICQRMLCPRMKGDGETMTNDYVVHGPASVPLGYVPHPSSLSGSLPGMSRGKSMISSLSIMGGSSGPPYDRAHVTGASSSSSSSTKGTYFPAILNPPPSPATERSHYTMEFGYSSNSPSTHRSYSYRPYSYRHFAPPTTPCSTDVCDSDYAPSRRMTSVATAKGYTSDLNYDSEPVPPPPTPRSQYLSAEENYESCPPSPYTERSYSHHLYPPPPSPCTDSS | no change
LRP6: N42Q (protein) parent chain: MGAVLRSLLACSFCVLLRAAPLLLYANRRDLRLVDATNGKENATIVVGGLEDAAAVDFVFSHGLIYWSDVSEEAIKRTEFNKTESVQNVVVSGLLSPDGLACDWLGEKLYWTDSETNRIEVSNLDGSLRKVLFWQELDQPRAIALDPSSGFMYWTDWGEVPKIERAGMDGSSRFIIINSEIYWPNGLTLDYEEQKLYWADAKLNFIHKSNLDGTNRQAVVKGSLPHPFALTLFEDILYWTDWSTHSILACNKYTGEGLREIHSDIFSPMDIHAFSQQRQPNATNPCGIDNGGCSHLCLMSPVKPFYQCACPTGVKLLENGKTCKDGATELLLLARRTDLRRISLDTPDFTDIVLQLEDIRHAIAIDYDPVEGYIYWTDDEVRAIRRSFIDGSGSQFVVTAQIAHPDGIAVDWVARNLYWTDTGTDRIEVTRLNGTMRKILISEDLEEPRAIVLDPMVGYMYWTDWGEIPKIERAALDGSDRVVLVNTSLGWPNGLALDYDEGKIYWGDAKTDKIEVMNTDGTGRRVLVEDKIPHIFGFTLLGDYVYWTDWQRRSIERVHKRSAEREVIIDQLPDLMGLKATNVHRVIGSNPCAEENGGCSHLCLYRPQGLRCACPIGFELISDMKTCIVPEAFLLFSRRADIRRISLETNNNNVAIPLTGVKEASALDFDVTDNRIYWTDISLKTISRAFMNGSALEHVVEFGLDYPEGMAVDWLGKNLYWADTGTNRIEVSKLDGQHRQVLVWKDLDSPRALALDPAEGFMYWTEWGGKPKIDRAAMDGSERTTLVPNVGRANGLTIDYAKRRLYWTDLDTNLIESSNMLGLNREVIADDLPHPFGLTQYQDYIYWTDWSRRSIERANKTSGQNRTIIQGHLDYVMDILVFHSSRQSGWNECASSNGHCSHLCLAVPVGGFVCGCPAHYSLNADNRTCSAPTTFLLFSQKSAINRMVIDEQQSPDIILPIHSLRNVRAIDYDPLDKQLYWIDSRQNMIRKAQEDGSQGFTVVVSSVPSQNLEIQPYDLSIDIYSRYIYWTCEATNVINVTRLDGRSVGVVLKGEQDRPRAVVVNPEKGYMYFTNLQERSPKIERAALDGTEREVLFFSGLSKPIALALDSRLGKLFWADSDLRRIESSDLSGANRIVLEDSNILQPVGLTVFENWLYWIDKQQQMIEKIDMTGREGRTKVQARIAQLSDIHAVKELNLQEYRQHPCAQDNGGCSHICLVKGDGTTRCSCPMHLVLLQDELSCGEPPTCSPQQFTCFTGEIDCIPVAWRCDGFTECEDHSDELNCPVCSESQFQCASGQCIDGALRCNGDANCQDKSDEKNCEVLCLIDQFRCANGQCIGKHKKCDHNVDCSDKSDELDCYPTEEPAPQATNTVGSVIGVIVTIFVSGTVYFICQRMLCPRMKGDGETMTNDYVVHGPASVPLGYVPHPSSLSGSLPGMSRGKSMISSLSIMGGSSGPPYDRAHVTGASSSSSSSTKGTYFPAILNPPPSPATERSHYTMEFGYSSNSPSTHRSYSYRPYSYRHFAPPTTPCSTDVCDSDYAPSRRMTSVATAKGYTSDLNYDSEPVPPPPTPRSQYLSAEENYESCPPSPYTERSYSHHLYPPPPSPCTDSS | no change
LRP6: N81Q (protein) parent chain: MGAVLRSLLACSFCVLLRAAPLLLYANRRDLRLVDATNGKENATIVVGGLEDAAAVDFVFSHGLIYWSDVSEEAIKRTEFNKTESVQNVVVSGLLSPDGLACDWLGEKLYWTDSETNRIEVSNLDGSLRKVLFWQELDQPRAIALDPSSGFMYWTDWGEVPKIERAGMDGSSRFIIINSEIYWPNGLTLDYEEQKLYWADAKLNFIHKSNLDGTNRQAVVKGSLPHPFALTLFEDILYWTDWSTHSILACNKYTGEGLREIHSDIFSPMDIHAFSQQRQPNATNPCGIDNGGCSHLCLMSPVKPFYQCACPTGVKLLENGKTCKDGATELLLLARRTDLRRISLDTPDFTDIVLQLEDIRHAIAIDYDPVEGYIYWTDDEVRAIRRSFIDGSGSQFVVTAQIAHPDGIAVDWVARNLYWTDTGTDRIEVTRLNGTMRKILISEDLEEPRAIVLDPMVGYMYWTDWGEIPKIERAALDGSDRVVLVNTSLGWPNGLALDYDEGKIYWGDAKTDKIEVMNTDGTGRRVLVEDKIPHIFGFTLLGDYVYWTDWQRRSIERVHKRSAEREVIIDQLPDLMGLKATNVHRVIGSNPCAEENGGCSHLCLYRPQGLRCACPIGFELISDMKTCIVPEAFLLFSRRADIRRISLETNNNNVAIPLTGVKEASALDFDVTDNRIYWTDISLKTISRAFMNGSALEHVVEFGLDYPEGMAVDWLGKNLYWADTGTNRIEVSKLDGQHRQVLVWKDLDSPRALALDPAEGFMYWTEWGGKPKIDRAAMDGSERTTLVPNVGRANGLTIDYAKRRLYWTDLDTNLIESSNMLGLNREVIADDLPHPFGLTQYQDYIYWTDWSRRSIERANKTSGQNRTIIQGHLDYVMDILVFHSSRQSGWNECASSNGHCSHLCLAVPVGGFVCGCPAHYSLNADNRTCSAPTTFLLFSQKSAINRMVIDEQQSPDIILPIHSLRNVRAIDYDPLDKQLYWIDSRQNMIRKAQEDGSQGFTVVVSSVPSQNLEIQPYDLSIDIYSRYIYWTCEATNVINVTRLDGRSVGVVLKGEQDRPRAVVVNPEKGYMYFTNLQERSPKIERAALDGTEREVLFFSGLSKPIALALDSRLGKLFWADSDLRRIESSDLSGANRIVLEDSNILQPVGLTVFENWLYWIDKQQQMIEKIDMTGREGRTKVQARIAQLSDIHAVKELNLQEYRQHPCAQDNGGCSHICLVKGDGTTRCSCPMHLVLLQDELSCGEPPTCSPQQFTCFTGEIDCIPVAWRCDGFTECEDHSDELNCPVCSESQFQCASGQCIDGALRCNGDANCQDKSDEKNCEVLCLIDQFRCANGQCIGKHKKCDHNVDCSDKSDELDCYPTEEPAPQATNTVGSVIGVIVTIFVSGTVYFICQRMLCPRMKGDGETMTNDYVVHGPASVPLGYVPHPSSLSGSLPGMSRGKSMISSLSIMGGSSGPPYDRAHVTGASSSSSSSTKGTYFPAILNPPPSPATERSHYTMEFGYSSNSPSTHRSYSYRPYSYRHFAPPTTPCSTDVCDSDYAPSRRMTSVATAKGYTSDLNYDSEPVPPPPTPRSQYLSAEENYESCPPSPYTERSYSHHLYPPPPSPCTDSS | abolishes
LRP6: N692Q (protein) parent chain: MGAVLRSLLACSFCVLLRAAPLLLYANRRDLRLVDATNGKENATIVVGGLEDAAAVDFVFSHGLIYWSDVSEEAIKRTEFNKTESVQNVVVSGLLSPDGLACDWLGEKLYWTDSETNRIEVSNLDGSLRKVLFWQELDQPRAIALDPSSGFMYWTDWGEVPKIERAGMDGSSRFIIINSEIYWPNGLTLDYEEQKLYWADAKLNFIHKSNLDGTNRQAVVKGSLPHPFALTLFEDILYWTDWSTHSILACNKYTGEGLREIHSDIFSPMDIHAFSQQRQPNATNPCGIDNGGCSHLCLMSPVKPFYQCACPTGVKLLENGKTCKDGATELLLLARRTDLRRISLDTPDFTDIVLQLEDIRHAIAIDYDPVEGYIYWTDDEVRAIRRSFIDGSGSQFVVTAQIAHPDGIAVDWVARNLYWTDTGTDRIEVTRLNGTMRKILISEDLEEPRAIVLDPMVGYMYWTDWGEIPKIERAALDGSDRVVLVNTSLGWPNGLALDYDEGKIYWGDAKTDKIEVMNTDGTGRRVLVEDKIPHIFGFTLLGDYVYWTDWQRRSIERVHKRSAEREVIIDQLPDLMGLKATNVHRVIGSNPCAEENGGCSHLCLYRPQGLRCACPIGFELISDMKTCIVPEAFLLFSRRADIRRISLETNNNNVAIPLTGVKEASALDFDVTDNRIYWTDISLKTISRAFMNGSALEHVVEFGLDYPEGMAVDWLGKNLYWADTGTNRIEVSKLDGQHRQVLVWKDLDSPRALALDPAEGFMYWTEWGGKPKIDRAAMDGSERTTLVPNVGRANGLTIDYAKRRLYWTDLDTNLIESSNMLGLNREVIADDLPHPFGLTQYQDYIYWTDWSRRSIERANKTSGQNRTIIQGHLDYVMDILVFHSSRQSGWNECASSNGHCSHLCLAVPVGGFVCGCPAHYSLNADNRTCSAPTTFLLFSQKSAINRMVIDEQQSPDIILPIHSLRNVRAIDYDPLDKQLYWIDSRQNMIRKAQEDGSQGFTVVVSSVPSQNLEIQPYDLSIDIYSRYIYWTCEATNVINVTRLDGRSVGVVLKGEQDRPRAVVVNPEKGYMYFTNLQERSPKIERAALDGTEREVLFFSGLSKPIALALDSRLGKLFWADSDLRRIESSDLSGANRIVLEDSNILQPVGLTVFENWLYWIDKQQQMIEKIDMTGREGRTKVQARIAQLSDIHAVKELNLQEYRQHPCAQDNGGCSHICLVKGDGTTRCSCPMHLVLLQDELSCGEPPTCSPQQFTCFTGEIDCIPVAWRCDGFTECEDHSDELNCPVCSESQFQCASGQCIDGALRCNGDANCQDKSDEKNCEVLCLIDQFRCANGQCIGKHKKCDHNVDCSDKSDELDCYPTEEPAPQATNTVGSVIGVIVTIFVSGTVYFICQRMLCPRMKGDGETMTNDYVVHGPASVPLGYVPHPSSLSGSLPGMSRGKSMISSLSIMGGSSGPPYDRAHVTGASSSSSSSTKGTYFPAILNPPPSPATERSHYTMEFGYSSNSPSTHRSYSYRPYSYRHFAPPTTPCSTDVCDSDYAPSRRMTSVATAKGYTSDLNYDSEPVPPPPTPRSQYLSAEENYESCPPSPYTERSYSHHLYPPPPSPCTDSS | abolishes
